Data as given in publication PMC5765006 (2018).

Molecular target: soluble extracellular domain of human TM (Homo sapiens (Human), UniProt P07204)
Assay: competition pull-down (native Ang1 inhibits thrombin/TM co-precipitation on Ni-NTA, western blot); direct pull-down only with BowAng1; indirect readout: displacement of thrombin (5 nM) from soluble TM

Sequence of soluble extracellular domain of human TM (P07204 19-515): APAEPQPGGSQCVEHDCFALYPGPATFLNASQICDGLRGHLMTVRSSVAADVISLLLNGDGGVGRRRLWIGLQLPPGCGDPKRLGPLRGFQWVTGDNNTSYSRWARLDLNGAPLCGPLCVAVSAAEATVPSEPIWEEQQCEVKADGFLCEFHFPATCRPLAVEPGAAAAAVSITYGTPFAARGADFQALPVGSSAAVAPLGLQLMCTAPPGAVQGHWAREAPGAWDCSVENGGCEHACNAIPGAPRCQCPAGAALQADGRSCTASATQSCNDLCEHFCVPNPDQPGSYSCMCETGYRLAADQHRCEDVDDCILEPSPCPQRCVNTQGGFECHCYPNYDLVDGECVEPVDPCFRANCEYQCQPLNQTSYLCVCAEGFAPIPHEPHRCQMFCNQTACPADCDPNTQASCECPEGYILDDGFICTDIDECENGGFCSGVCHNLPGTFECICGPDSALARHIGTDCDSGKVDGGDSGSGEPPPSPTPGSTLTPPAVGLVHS

- binding result: binds
B1: native human Ang1 (protein)
chain: HIGCSNQRRSPENSGRRYNRIQHGQCAYTFILPEHDGNCRESTTDQYNTNALQRDAPHVEPDFSSQKLQHLEHVMENYTQWLQKLENYIVENMKSEMAQIQQNAVQNHTATMLEIGTSLLSQTAEQTRKLTDVETQVLNQTSRLEIQLLENSLSTYKLEKQLLQQTNEILKIHEKNSLLEHKILEMEGKHKEELDTLKEEKENLQGLVTRQTYIIQELEKQLNRATTNNSVLQKQQLELMDTVHNLVNLCTKEGVLLKGGKREEEKPFRDCADVYQAGFNKSGIYTIYINNMPEPKKVFCNMDVNGGGWTVIQHREDGSLDFQRGWKEYKMGFGNPSGEYWLGNEFIFAITSQRQYMLRIELMDWEGNRAYSQYDRFHIGNEKQNYRLYLKGHTGTAGKQSSLILHGADFSTKDADNDNCMCKCALMLTGGWWFDACGPSNLNGMFYTAGQNHGKLNGIKWHYFKGPSYSLRSTTMMIRPLDF
